In series [1] the target is Pcdhα7 EC1-5 (Mus musculus) (UniProt Q91Y13). To be noted: cited from earlier work.
The series “AUC” concerns the molecule itself. Description: AUC.

Broadly, the Kd is the free concentration of one partner at which half of the binding sites on the other are occupied at equilibrium, for simple one-to-one binding. For the molecule Pcdhα7 EC1-5 (from UniProt Q91Y13), the Kd in series [1] is 2910 nM.

B1: Pcdh β8 EC1–4 (mouse clustered protocadherin β8, extracellular cadherin domains 1–4) (domain or fragment)
chain: EAISYSMPEETESGYLVANLAQDLGLRVGELTTRGARIHHNGNKELLQLDAERGNLLLKEKPDREALCGATEPCVLHFQIILENPVQFFQTDLQFTDINDHFPEFPDTEMLLKIQEIAQPGTVFPLKAAQDPDIGSNAVQNYTVSPNLHFHVVTLSRSDDRKYPELVLDRALDREEQPELTLILTALDGGAPPKSGTTTVRIEVVDINDNAPQFLQSLYAVEVPENSPLNALVVTVSARDLDAGIHGNVAYSLFQGGGGPQPFVIDEITGEIRLKGALDFEATSYYTMEIVATDSGGLSGKCTVAIQVLDVNDNAPKLTISSLTSSIPENAPEAVVAVFSVSDPDSGDNGRMVCSIQNGLPFLLKPTFKNFYTLVTERPLDRESNAEYNITITVSDLGTPRLTTQHTITVQVSDINDN
modifications: N- and O-linked glycans; O-mannose at positions 194 and 196 (α7 numbering) of EC2 and on T199
The stoichiometry N is a count of units in the complex or per binding partner. As to B1, in “AUC”, binding was characterised by a dissociation constant (Kd) of 24 ± 0.43 µM and the “stoichiometry N” value was determined as 2.

B2: Pcdh β6 EC1–4 (mouse clustered protocadherin β6, extracellular cadherin domains 1–4) (domain or fragment)
chain: EAIRYSIPEETESGYLVAHLAKDLGFRVGELATRRARIHHRGNKELLQLDVETGNLLLKEKPDREALCGATEPCVLHFQIILENPVQFFQTELQLTDINDHSPEFPDTEMLLKIQESTQPATVFLLKAAQDSDIGSNAVQNYTVSPNLHFHVVTLSRSDGRKYPELVLDRALDREEQPELTLILTALDGGAPPKSGTTTVRIEVVDINDNAPEFVQSLYSVEVPENSPLDALVVTVSARDLDAGIHGNVAYSLFQGGGGPQPFVIDEITGEIRLKGALDFEATSYYTMEIVATDSGGLSGKCTVAIQVLDVNDNAPKLTISSLTSSIPENAPEAVVAVFSVSDPDSGDNGRMVCSIQNELPFLLKPTFENYYTLAAEGPLDREIREEYNITIIVSDLGTPRLTTQHTITVQVVDIND
modifications: N- and O-linked glycans; O-mannose at positions 194 and 196 (α7 numbering) of EC2
Regarding B2, in “AUC”, the Kd was determined as 16.3 ± 2.08 µM and the “stoichiometry N” value came out at 2.

B3: Pcdh α7 EC1–5 (mouse clustered protocadherin α7, extracellular cadherin domains 1–5) (domain or fragment)
chain: QLHYSVPEEAKHGTFVGRIAQDLGLELTELVPRLFRVASKDRGDLLEVNLQNGILFVNSRIDREELCGRSAECSIHLEVIVDRPLQVFHVEVEVKDINDNPPMFPATQKALFILESRLLDSRFPLEGASDADVGSNALLTYRLSTNEHFSLDVPPNHEQVKPLGLVLRKPLDREEAAEIRLLLTATDGGKPELTGTVQLLITVLDVNDNAPVFDRSLYTVKLPENVPNGTLVIKVNASDLDEGVNGDVMYSFSSDVSSDIKSKFHMDTVSGEITVIGIIDFEESKAYKIPLEARDKGFPQLPGHCTILVEVVDANDNAPQLTVSSLSLPVSEDSQPGRVVTLISVFDRDSGANGQVTCSLTPHIPFKLVSTFKNYYSLVLDSALDRETIANYDVIVTARDGGSPSLWATASVSVEVADVNDNAPLFAQPEYTVFVKENNPPGAHIFTVSAMDADAQENALVSYSLVERRVGERLLSSYVSVHAESGKVFALQPLDHEELELLQFQVSARDAGVPALGSNVTLQVFVLDEND
modifications: N- and O-linked glycans; O-mannose at positions 194 and 196 (EC2), T409 (EC4) and S449 (EC5)
With B3, the “stoichiometry N” value in “AUC” amounted to 2.

B4: Pcdh α4 EC1–4 (mouse clustered protocadherin α4, extracellular cadherin domains 1–4) (domain or fragment)
chain: QIHYSIPEEAKHGTFVGRIAQDLGLELTELVPRLFRVASKDRGDLLEVNLQNGILFVNSRIDREELCGRSAECSIHLEVIVDRPLQVFHVEVEVRDINDNPPRFPTTQKNLFIAESRPLDTWFPLEGASDADIGINAVLTYRLSPNDYFSLEKPSNDERVKGLGLVLRKSLDREETPEIILVLTVTDGGKPELTGSVQLLITVLDANDNAPVFDRSLYTVKLPENVPNGTLVVKVNASDLDEGVNGDIMYSFSTDISPNVKYKFHIDPVSGEIIVKGYIDFEECKSYEILIEGIDKGQLPLSGHCKVIVQVEDINDNVPELEFKSLSLPIRENSPVGTVIALISVSDRDTGVNGQVTCSLTSHVPFKLVSTFKNYYSLVLDSALDRETTADYKVVVTARDGGSPSLWATASVSVEVADVND
modifications: N- and O-linked glycans; O-mannose on T409, S411 and S413 (EC4)
Regarding B4, in the series “AUC”, the Kd was determined as 0.037 ± 0.0082 µM and the “stoichiometry N” value is 2.

These data come from publication PMC4873334 (Neuron, 2016).
